# Results from the DeepSol protein solubility set.
# Experiment: soluble on expression in E. coli; label from the status in PepcDB or PDB records
row,Sequence,soluble on expression in E. coli
1,MSLGSPKSVRIVVVGDKGTGKSSLIVAAATDSFPPNVPPVLPDYKLPIEFFPDGIPVTIVDTSSRPEDRDIVAEELKRADAVVLTYACDRPETLERLSEYWLPELRRLEVKIPIIVAGCKLDFRDDNNQVSLEQVMSPIMQQFREIETCIECSALKQLQAQEVFYYAQKTVLHPTGPLFDQEGHHHHHH,soluble
2,MDPDKKKMFEVIIKKIQQQSSALEEAMKAQKPKVDCSMSREMCSPSGLIIIMERIYEKEFLADMARLNVLPVDVLTRVSAQDSIATEEAKGRLLNESRDVLSEWLDHNHGKDARDHSVFDDLAKRRIFYLAGPFLQSQWHLECSVISSSAVPAARNIVWNDHLRIRRDAAVAAAAAVNNTAGLADMDQGTRIELPKSKHQWSHQDASRHIKFVKSSVGKFFKKKIIQKFSTGGSQNLFFFYTSVCVQDIALNCTSPFWEINNEYNPVIKFSKIRFPADISVINGFRMPFLKM,not soluble
3,MGSDKIHHHHHHMIDEHHIDALTKLLGDKGVVTRREDMEAYEAGARYDRGRAAAVLRPVTTEEVSAAVGYCVRSGIALIPQSGNTGLVSGSTPDESGSEVVVSLDRLTRQFALDLDNRSVRVDAGFRLSELNRRLEEHGLFFPIDLGADPRIGGMIATNTGGSRFLKYGDVRRNTLGLKVVLADEAGTVLDLGSDLRKNNTGVDWKQIFIGTSGAFGIVTECVLNLERLPKQTATAFLVPASGAHVLPLLKAMEERLGAYLSAFEGMSRNAIAAAFAHVPALKNPFQGGKVPDYVILAEISRTSSPREGEQPLDAVLESVLAEIWEMEEVLLADALVGPPHEIWALRHALSEGVKHLGKLIAFDLSFRRGDIMAFCDHMKTEMPEKFPGVTVCDFGHIGDGGVHFNLVVAKDSPLLADATFEQRLREWVFAVAVEQYHGSFSAEHALGRRNQAFYDLYTPEKLKNMAAGLKTLTSPGKLGSVRFG,not soluble
4,MSLRIADKTVTRAILERHGFTFKKSFGQNFLTDTNILQKIVDTAEIDKGVNVIEIGPGIGALTEFLAENAAEVMAFEIDDRLIPILADTLARFDNVQVVNQDILKADLQTQIQAFKNPDLPIKVVANLPYYITTPILMHLIESKIPFAEFVVMIQKEVADRISAMPNTKAYGSLSIAVQYYMTAKVSFIVPRTVFVPAPNVDSAILKMVRRDQPVVSVQDEDFFFRVSKVAFVHRRKTLWNNLTSHFGKSEDTKAKLEKALEIAKIKPSIRGEALSIPDFASLADALKEVGIEGHHHHHH,soluble
5,SAYIHIPFCEHICHYCDFNKYFIQSQPVDEYLNALEQEMINTIAKTGQPDLKTIFIGGGTPTSLSEEQLKKLMDMINRVLKPSSDLSEFAVDANPDDLSAEKLKILKEAGVNRLSFGVQTFEDDLLEKIGRVHKQKDVFTSFERAREIGFENISLDLMFGLPGQTLKHLEHSINTALSLDAEHYSVYSLIVEPKTVFYNLMQKGRLHLPPQEQEAEMYEIVMSKMEAHGIHQYEISNFAKAGMESKHNLTYWSNEQYFGFGAGAHGYIGGTRTVNVGPVKHYIDLIAEKGFPYRDTHEVTTEEQIEEEMFLGLRKTAGVSKKRFAEKYGRSLDGLFPSVLKDLAEKGLIHNSES,not soluble
6,SKEHQAVSLEAARQSLVLLKNETNLLPLSKSIRSIAVIGPNANEQTQLICRYGPANAPIKTVYQGIKELLPHTEVIYKKGCDIIDPHFPESEILDFPKTAEEVQLMEEAIRAAKQAEVVVMVLGGNELTVREDRSRTSLNLPGRQEELLKAVCATGKPIILVMLDGRASSINYAAAHIPAILHAWFPGEFCGQAVAEALFGDYNPGGRLAVTFPKSVGQIPFAFPFKPGSDESSSTSVYGALYPFGHGLSYTTF,not soluble
7,MQFLSPLILFTSCTLLATSLLAAEQAPPPSECLIKSQQISSQIQDAKTEGNKAEQSGLEKALAEVNANCTETSLLKQREQKVLDAKREVSRRQTDLNKAMDKGDPEKINKRKDKLAESRKELQEAQTDLEKVQSDDLEHHHHHH,not soluble
8,LFTPDKQRITESVAFKDLSSPELEQYIGDTQAEKLRADIELIDGVYQPFDKEEYLAGQLAPVFFGSALNNFGVQELLNCFVEIAPSPQPVAAVERKVDPHEEEFTGFVFKIHANMDPNHRSCIAFVKICSGRFERNTNYKHIRLGKQFRFSSPTAFMAQRKETVDEAYAGDIIGLPDTGNFQIGDTLTAGEELHFRGLPSFSPELFKYIENQDPMKAKQLAKGIDQLMGEGVAQLFTNQFNGRKIIGTVGQLQFEVIQYRLLHEYGAQCRWEPISLYKACWIDSDKPEALEAFKKRKAQYMAKDIAGRDVYLADSGYVLNMAQQDFPDIRFHFTSEF,not soluble
